For assay [1], the target named is isolated LIM domain of Pdlim5 fused to a Golgi localization sequence. Nature of the assay: Golgi co-relocalization assay (immunofluorescence, Pearson's correlation coefficient). As to conditions: HT-22 cells; co-expression of GLS-LIM with isolated PDZ 4xMut; parent: est. 0.88; read off a plot.
Another assay addresses Abl1 SH2 domain (UniProt P00519). Nature of the assay: GST-domain microarray probed with biotinylated peptide. As to conditions: reference: unphosphorylated peptide; sites Y251.
A further assay has as its target Nck2 SH2 domain (UniProt O43639). The assay is described as above. As to conditions: reference: unphosphorylated peptide; sites Y251.
In a further assay the target is Fyn SH2 domain (UniProt P06241). The description is as above. As to conditions: reference: unphosphorylated peptide; sites Y251.
The target of a further assay is Yes SH2 domain (UniProt P07947). Described as above. As to conditions: reference: unphosphorylated peptide; sites Y251.
In another assay the target is Abl2 SH2 domain (UniProt P42684). Described as above. As to conditions: reference: unphosphorylated peptide; sites Y251.
The target of assay [2] is isolated PDZ domain of Pdlim5 fused to a Golgi localization sequence (UniProt Q96HC4). Nature of the assay: Golgi co-relocalization assay (immunofluorescence, Pearson's correlation coefficient). As to conditions: HT-22 cells; co-expression of GLS-PDZ with isolated LIM 4xMut; parent: est. 0.84; read off a plot.
Chain of UniProt Q96HC4 (Q96HC4 2-85): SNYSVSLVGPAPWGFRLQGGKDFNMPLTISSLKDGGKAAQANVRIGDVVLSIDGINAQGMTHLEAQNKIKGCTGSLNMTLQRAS

For the substance “isolated PDZ domain of Pdlim5 (not fused to GLS) (from UniProt Q96HC4) P13G; R17A; K34G; K71A”, in assay [1], the other: Pearson corr. coef. (r) is 0.08.

Turning to “Pdlim5 242-261 (from UniProt Q96HC4) pY251 peptide”, the “binding against the reference” value with Abl1 SH2 domain, with Nck2 SH2 domain, in the assay with Fyn SH2 domain, in the assay with Yes SH2 domain and in the assay with Abl2 SH2 domain was “stronger” each time.

With “isolated LIM domain of Pdlim5 (not fused to GLS) C541G; F543A; T562A; C570A”, the other: Pearson corr. coef. (r) in assay [2] came out at 0.05.

The record behind these values is publication PMC11312917.
